The values that follow come from paper PMC4928127, “Determination of GLUT1 Oligomerization Parameters using Bioluminescent Förster Resonance Energy Transfer” (Scientific Reports, 2016).

The target in this assay is T1, Nluc-GLUT1 (mouse, UniProt P17809 1-492).
T1 construct: facilitated glucose transporter GLUT1 (SLC2A1), mouse Glut1 open reading frame; BRET donor; also called GLUT1 fused to Nluc at the N-terminus; not shown: Nanoluciferase (Nluc), N-terminal, kept
T1 sequence (looked up): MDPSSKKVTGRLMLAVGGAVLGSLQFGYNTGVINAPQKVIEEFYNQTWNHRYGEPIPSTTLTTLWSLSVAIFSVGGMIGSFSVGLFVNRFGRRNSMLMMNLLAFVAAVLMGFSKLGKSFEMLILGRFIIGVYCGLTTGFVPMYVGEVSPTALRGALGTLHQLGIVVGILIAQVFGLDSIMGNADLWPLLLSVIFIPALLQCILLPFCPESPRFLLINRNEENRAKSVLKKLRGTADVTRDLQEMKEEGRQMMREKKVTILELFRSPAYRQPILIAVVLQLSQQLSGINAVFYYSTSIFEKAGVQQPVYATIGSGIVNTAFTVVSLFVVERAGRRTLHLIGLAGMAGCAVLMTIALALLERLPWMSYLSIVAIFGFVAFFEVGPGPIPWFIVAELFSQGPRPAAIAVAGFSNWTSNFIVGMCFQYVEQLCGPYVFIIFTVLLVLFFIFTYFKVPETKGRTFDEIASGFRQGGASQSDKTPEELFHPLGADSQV
In words: FRET or BRET; stable polyclonal 293FT/dox^GB1 cells: constitutive Nluc-GLUT1, mCherry-GLUT1 induced 48 hours with a 2-fold serial dilution of doxycycline; corrected BRET against doxycycline and against mCherry-GLUT1 level relative to endogenous GLUT1 by immunoblot. To be noted: partners not purified.

B1: mCherry-GLUT1 (natural protein, mouse, UniProt P17809 1-492, looked up)
chain: T1 sequence (looked up)
notes: facilitated glucose transporter GLUT1 (SLC2A1), mouse Glut1 open reading frame; BRET acceptor; also called GLUT1 fused to mCherry at the N-terminus; not shown: mCherry, N-terminal, kept
As to B1, the “doxycycline concentration at which ~50% of mCherry-GLUT1 is in multimeric complexes (doxycycline EC50 of BRET)” value is 4.69 ng/mL.
